Laboratory results: paper PMC3721678

How the values were obtained:
Assay in all cases: SPR
[1] = target: IgA1-Fc Fc (Homo sapiens) (UniProt P01876); conditions: cited from earlier work
[2] = target: Hinge region glycopeptide (HR-GalNAc) (human)
[3] = target: monomeric IgA1Mce myeloma protein (human)
[4] = target: monomeric IgA1κ myeloma protein (human)
[5] = target: monomeric IgA1λ myeloma protein (human)
[6] = target: polymeric IgA1Ale myeloma protein (human)
[7] = target: polymeric IgA1Mce myeloma protein (human)
[8] = target: polymeric IgA1κ myeloma protein (human)
[9] = target: polymeric IgA1λ myeloma protein (human)

IgA1-Fc Fc (Homo sapiens), sequence (P01876 120-340): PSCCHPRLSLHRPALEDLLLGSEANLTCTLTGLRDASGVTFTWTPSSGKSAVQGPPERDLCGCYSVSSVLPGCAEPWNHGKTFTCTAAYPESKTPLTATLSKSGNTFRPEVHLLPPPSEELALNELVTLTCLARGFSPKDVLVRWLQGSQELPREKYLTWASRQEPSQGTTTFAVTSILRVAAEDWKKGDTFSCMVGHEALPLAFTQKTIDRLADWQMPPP
FcαRI, sequence (P24071 22-287): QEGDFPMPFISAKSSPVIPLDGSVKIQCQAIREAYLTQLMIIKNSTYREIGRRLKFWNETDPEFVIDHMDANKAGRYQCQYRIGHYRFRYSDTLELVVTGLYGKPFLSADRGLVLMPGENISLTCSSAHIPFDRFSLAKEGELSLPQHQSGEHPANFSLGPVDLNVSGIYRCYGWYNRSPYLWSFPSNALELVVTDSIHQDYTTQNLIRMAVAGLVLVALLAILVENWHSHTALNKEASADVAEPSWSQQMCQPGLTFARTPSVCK

KD1 (two-site model, apparent) [2] | KD2 (two-site model, apparent) [2] | KD1 (two-site model, apparent) [3] | KD2 (two-site model, apparent) [3] | KD1 (two-site model, apparent) [4] | KD2 (two-site model, apparent) [4] | KD1 (two-site model, apparent) [5] | KD2 (two-site model, apparent) [5] | KD1 (two-site model, apparent) [6] | KD2 (two-site model, apparent) [6] | KD1 (two-site model, apparent) [7] | KD2 (two-site model, apparent) [7] | KD1 (two-site model, apparent) [8] | KD2 (two-site model, apparent) [8] | KD1 (two-site model, apparent) [9] | KD2 (two-site model, apparent) [9] | Substance | Kd [1]
 |  |  |  |  |  |  |  |  |  |  |  |  |  |  |  | FcαRI (from UniProt P24071) | 9 nM
0.11 µM | 7 µM | 7.2 µM | 76 µM | 1.8 µM | 8 µM | 6.2 µM | 73 µM | 1 µM | 14 µM | 5.6 µM | 70 µM | 1.7 µM | 25 µM | 3 µM | 28 µM | Helix aspersa agglutinin (natural protein) | 
0.045 µM | 2.3 µM | 2.3 µM | 24 µM | 0.76 µM | 10 µM | 1.8 µM | 21 µM | 0.58 µM | 6 µM | 1.1 µM | 7 µM | 0.65 µM | 11 µM | 1.1 µM | 5 µM | Helix pomatia agglutinin (natural protein) | 
